# Source: patent US20110009342A1, “USES OF PDCD5 POLYPEPTIDE FOR TUMOR CHEMOTHERAPY AND ORGAN PROTECTION” (priority 2008, published 2011)
# B1: rhPDCD5: recombinant human programmed cell death 5 protein (SEQ ID NO:1) expressed in E. coli and purified (protein, listed as Homo sapiens)
# chain: MADEELEALRRQRLAELQAKHGDPGDAAQQEAKHREAEMRNSILAQVLDQSARARLSNLALVKPEKTKAVENYLIQMARYGQLSEKVSEQGLIEILKKVSQQTEKTTTVKFNRRKVMDSDEDDDY
# Columns and labels:
# U937 cells [1] = assay: cell apoptosis assay, DNR; type: cell-based
# Procedure: Methods: Cell apoptosis assay: U937 cells (ATCC), in the logarithmic phase, were maintained in RPMI 1640 (Life Technologies, USA) supplemented with 10% FBS (Hyclone, USA), and were adjusted to a density of 2×10^5 cells/mL and then were divided into control groups and test groups. U937 cells in the control groups were treated with DNR (Pharmacia Italia SPA) alone, with the final concentrations of 0 μg/mL, 0.05 μg/mL, and 0.1 μg/mL. U937 cells in the test groups were treated with DNR of various concentrations combined with PDCD5 of various concentrations, with the final concentrations of PDCD5 being 0 μg/mL, 2.5 μg/mL, and 5 μg/mL, respectively. After being incubated for 24 hours in a 37° C., 5% CO2 and saturatedly humidified incubator, the cells were stained with Annexin-V/PI (Biosea) and then were analyzed for apoptosis with a FACSCalibur flow cytometer.
# Jurkat cells = assay: FITC/Annexin-V apoptosis by flow cytometry, DNR; type: cell-based
# Procedure: Methods: The density of Jurkat cells were adjusted by RPMI 1640 medium (Life Technologies, USA) supplemented with 10% Fetal Bovine Serum (FBS, Hyclone, USA). […] Subsequently, DNR (Pharmacia Italia S.P.A) was added with its final concentration of 0.05 μg/mL, and RPMI 1640 medium supplemented with 10% FBS was added to ensure the system to be 1 mL. After 24h incubation, the sample was stained with FITC/Annexin-V (Beijing Biosea Biotechnology CO., LTD) and detected for apoptosis by flow cytometry.
# U937 cells [2] = assay: colony forming ability (CFA), DNR; type: cell-based
# Procedure: (§1) Analysis for colony forming ability (CFA): U937 cells (ATCC), in the logarithmic phase, were maintained in RPMI 1640 medium supplemented with 20% FBS and 0.4% methyl cellulose (Sigma) by the semi-solid colony culture method and were adjusted to a density of 5×10^3 cells/mL. The cells were divided into control groups and test groups, and each group was assayed in triple wells. U937 cells in the control groups were treated with DNR alone, with the final concentrations of 0 ng/mL and 0.5 ng/mL. U937 cells in the test group were treated with DNR of various concentrations combined with PDCD5 of various concentrations, while the final concentrations of PDCD5 were 0 μg/mL, 0.625 μg/mL, 1.25 μg/mL, and 2.5 μg/mL, respectively. After incubation for 14 days in a 37° C., 5% CO2 and saturatedly humidified incubator, a colony with more than 30 cells was counted by an inverted microscope in order to analyze colony forming ability of each group. The colony forming ability was shown as the ratio of average number of colony in each group versus that of the untreated control group in which the final concentrations of DNR and PDCD5 were 0 μg/mL.
# 7721 liver cancer cells = settings: Li et al. 2000; cited from earlier work
# HL-60 cells = assay: cell apoptosis assay, As2O3; type: cell-based
# Procedure: Methods: Cell apoptosis assay: HL-60 cells (ATCC) of logarithmic growth phase were cultured and the density of cells was 2×10^5/mL. The cells were divided into control and test groups. In the control groups, the HL60 cells were treated only with As2O3 (Harbin Yida Pharmaceutical Co., Ltd.), and the final concentration of As2O3 were 0 μg/mL, 0.25 μg/mL and 0.5 μg/mL, respectively. In the test groups, the HL60 cells were treated with As2O3 in the various concentrations combined with PDCD5 in various concentrations, the final concentrations of PDCD5 being 0 μg/mL, 5 μg/mL, 10 μg/mL and 20 μg/mL, respectively. The cells were incubated in a 37° C., 5% CO2 and saturatedly humidified incubator for 24 h, and subsequently were stained with Annexin-V/PI and detected for apoptosis by flow cytometer.
# Raji cells = assay: colony-forming ability (CFA) assay, ADM; type: cell-based
# Procedure: as §1, with “The colony forming ability was shown as the ratio of average number of colony in each group versus that of the untreated control group in which the final concentrations of DNR and PDCD5 were 0 μg/mL.” left out
# Methods: Colony-forming ability (CFA) assay: Raji cells of logarithmic growth phase were cultured, and the method was the same as that in Example 8. […] The numbers of colonies (containing≧30 cells) were counted by inverted microscope to observe the CFA, which is indicated by the ratio of average number of colony formation in each of the test groups versus that of the untreated control group.
molecule,measurement,setting,value
B1,enhancement of DNR-induced apoptosis,U937 cells [1],can significantly enhance DNR-induced apoptosis
same,enhancement of DNR-induced apoptosis,Jurkat cells,can significantly enhance DNR-induced apoptosis
same,enhancement of inhibition of CFA by DNR,U937 cells [2],can significantly enhance the inhibition of CFA by DNR
same,effect on the CFA of U937 cells,U937 cells [2]; rhPDCD5 alone,did not have significant effect
same,effect on apoptosis induced by hydroxy camptothecin (HCPT),7721 liver cancer cells,could accelerate apoptosis of 7721 liver cancer cells
same,enhancement of induced apoptosis,HL-60 cells,can significantly enhance As2O3-induced apoptosis
same,enhancement of inhibition of CFA by ADM,Raji cells,can significantly enhance the inhibition of CFA by ADM
